Assay results from patent US20240327535A1 (EISAI R AND D MANAGEMENT, published 2024).
Positions count from the first letter of the chain named. Read-outs that look alike come from different tables or passages of the source.

T1: human BCMA on NCI-H929, OPM2 and Raji cells (human, UniProt Q02223 1-184)
T1 construct: endogenous BCMA of human cell lines; also called TNFRSF17; CD269
T1 chain: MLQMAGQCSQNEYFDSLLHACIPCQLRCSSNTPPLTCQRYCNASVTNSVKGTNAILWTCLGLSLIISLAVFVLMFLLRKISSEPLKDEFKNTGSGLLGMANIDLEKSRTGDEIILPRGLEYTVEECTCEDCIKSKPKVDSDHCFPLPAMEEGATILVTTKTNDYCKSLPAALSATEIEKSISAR

T2: extracellular domain of human BCMA (human, UniProt Q02223 1-54)
T2 construct: amine-linked to Octet AR2G tips; also called hsBCMA; BCMA (human)
T2 sequence: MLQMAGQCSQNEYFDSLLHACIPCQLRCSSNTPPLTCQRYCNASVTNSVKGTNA

B1: AB214 (antibody, human IgG1, kappa, V domains shown)
VH: QVQLVQSGAEVKKPGSSVKVSCKASGGTFSNYWIHWVRQAPGQGLEWMGATYRSQSDTYYNQKYKSRVTITADKSTSTAYMELSSLRSEDTAVYYCARGAVYHGYDVIDNWGQGTLVTVSS
VL: DIQMTQSPSSLSASVGDRVTITCRASQSISSYLNWYQQKPGKAPKLLIYATSNLQIGVPSRFSGSGSGTDFTLTISSLQPEDFATYYCQQYRRIPWTFGQGTKLEIKR
notes: IgG1 kappa
B2: AB200-(2Vk8)_R2-CDR2-hs-v2 (Fab, V domains shown)
VH: QVQLVQSGAEVKKPGSSVKVSCKASGGSFSNYWIHWVRQAPGQGLEWMGGIIPIFGTANYAQKFQGRVTITADKSTSTAYMELSSLRSEDTAVYYCARGAIFHGYDVIDNWGQGTLVTVSS
VL: B1 VL with L33I, Y91F, R93K, I94L, T97S
B3: AB200-ADL5-D4-05 (antibody, human IgG1, kappa, V domains shown)
VH: B1 VH with I34M, S54G, Q55H, Y64F, S66G, V101I, H103D, I108L
VL: B1 VL with R24S, S28D, S31N, A50Y, Q55H, I56S, R93K, I94L
modifications: ADL5-D4 linker-payload on cysteine residues of the antibody, DAR 4.39
notes: antibody-drug conjugate
B4: AB200-(2Vk8)_R2-CDR1-hs-v4 (Fab, V domains shown)
VH: B1 VH with N31S, W33A, H35S, Y59F, Y64F
VL: B1 VL with L33I, Y91F, R93K, I94L, T97S
B5: AB200-mcMMAF-05 (antibody, human IgG1, kappa, V domains shown)
VH: B1 VH with I34M, S54G, Q55H, Y64F, S66G, V101I, H103D, I108L
VL: B1 VL with R24S, S28D, S31N, A50Y, Q55H, I56S, R93K, I94L
modifications: mcMMAF (ADL10-MMAF) linker-payload on cysteine residues of the antibody, DAR 4.0
notes: antibody-drug conjugate; also called AB200-ADL10-MMAF
B6: AB200-(2Vk31)_R2-VH-v27 (Fab, V domains shown)
VH: B1 VH with D57T, Y64F
VL: B1 VL with Y91F, I94L
notes: also called AB200_VH2-27_VK2-31
B7: AB200-(2Vk31)_R2-VH-v20 (Fab, V domains shown)
VH: B1 VH with A50G, Q55H, Y59N, Y64F, V101I, D109E
VL: B1 VL with Y91F, I94L
notes: also called AB200_VH2-20_VK2-31
B8: AB215 (antibody, human IgG1, kappa, V domains shown)
VH: B1 VH with S30T, A50G, Q55H, D57T, Y64F
VL: B1 VL
notes: IgG1 kappa
B9: AB200-(2Vk30)_R2-VH-v37 (Fab, V domains shown)
VH: B1 VH
VL: B1 VL
notes: also called AB200_VH2-37_VK2-30
B10: AB200-(2Vk35)_R2-VH-v6 (Fab, V domains shown)
VH: B1 VH with S30T, Q55H, N61A
VL: B1 VL with L33I, I56S
notes: also called AB200_VH2-06_VK2-35
B11: AB200-(2Vk44)_R2-VH-v75 (Fab, V domains shown)
VH: B1 VH with S54I
VL: B1 VL with L33I, I94L, T97S
notes: also called AB200_VH2-75_VK2-44
B12: AB213 (antibody, human IgG1, kappa, V domains shown)
VH: B1 VH with S30T, A50G, Q55H, D57T, Y64F
VL: B1 VL with Y91F, I94L
notes: IgG1 kappa
B13: AB217 (antibody, human IgG1, kappa, V domains shown)
VH: B1 VH with S30T, Q55H, N61A
VL: B1 VL with L33I, I56S
notes: IgG1 kappa

Key:
[1] = biological target: T1, human BCMA on NCI-H929, OPM2 and Raji …; assay: flow cytometry, NCI-H929 cells
[2] = biological target: T1, human BCMA on NCI-H929, OPM2 and Raji …; assay: flow cytometry, OPM2 cells
[3] = biological target: T1, human BCMA on NCI-H929, OPM2 and Raji …; assay: flow cytometry, Raji cells
[4] = biological target: T1, human BCMA on NCI-H929, OPM2 and Raji …; assay: flow cytometry on NCI-H929 cells (BCMA high), fluorescent anti-human IgG1 secondary antibody, MFI against antibody conc.
[5] = biological target: T2, extracellular domain of human BCMA; assay: Octet BLI; Fab 200 nM
[6] = biological target: T1, human BCMA on NCI-H929, OPM2 and Raji …; assay: flow cytometry, NCI-H929 cells
[7] = biological target: T1, human BCMA on NCI-H929, OPM2 and Raji …; assay: flow cytometry on NCI-H929 cells (BCMA high), fluorescent anti-human IgG1 secondary antibody, MFI against test article concentration
[8] = biological target: T1, human BCMA on NCI-H929, OPM2 and Raji …; assay: flow cytometry, NCI-H929 cells
[9] = biological target: T3, extracellular domain of rhesus monkey BCMA (rhesus monkey, UniProt F7FFA0 1-53); assay: Octet BLI; Fab 200 nM
T3 construct: extracellular domain; also called RhBCMA
T3 sequence (F7FFA0 entry or part of it): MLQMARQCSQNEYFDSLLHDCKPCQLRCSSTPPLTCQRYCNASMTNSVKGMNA

[10] = biological target: T2, extracellular domain of human BCMA; assay: Octet BLI; Fab 200 nM; remark: listed apart in the source
[11] = biological target: T3, extracellular domain of rhesus monkey …; assay: Octet BLI; Fab 200 nM; remark: listed apart in the source
[12] = biological target: T2, extracellular domain of human BCMA; assay: Octet BLI; Fab 200 nM; remark: listed apart in the source
[13] = biological target: T3, extracellular domain of rhesus monkey …; assay: Octet BLI; Fab 200 nM; remark: listed apart in the source
[14] = biological target: T2, extracellular domain of human BCMA; assay: Octet BLI; Fab 200 nM; remark: listed apart in the source
[15] = biological target: T3, extracellular domain of rhesus monkey …; assay: Octet BLI; Fab 200 nM; remark: listed apart in the source
[16] = biological target: T2, extracellular domain of human BCMA; assay: Octet BLI; Fab 200 nM; remark: listed apart in the source
[17] = biological target: T3, extracellular domain of rhesus monkey …; assay: Octet BLI; Fab 200 nM; remark: listed apart in the source
[18] = biological target: T2, extracellular domain of human BCMA; assay: Octet BLI; Fab 200 nM; remark: listed apart in the source
[19] = biological target: T3, extracellular domain of rhesus monkey …; assay: Octet BLI; Fab 200 nM; remark: listed apart in the source

Binder	Kd [1]	Kd [2]	Kd [3]	EC50 (read off the curve) [4]	Kd [10]	Kd [11]	other results
B1	2.84 nM	2.12 nM	5.66 nM	~3 nM	–	–	–
B2	–	–	–	–	–	–	Kd [5]: 151 nM
B3	–	–	–	–	–	–	Kd [6]: 6 to 10 nM; EC50 (read off the curve) [7]: ~9 nM; Kd [8]: 9.8 nM
B4	–	–	–	–	–	–	Kd [5]: 591 nM; Kd [9]: 773 nM
B5	–	–	–	–	–	–	Kd [6]: 6 to 10 nM; EC50 (read off the curve) [7]: ~6 nM
B6	–	–	–	–	6.43 nM	13.9 nM	Kd [12]: 7.13 nM; Kd [13]: 15.3 nM
B7	–	–	–	–	38.6 nM	79.3 nM	Kd [12]: 42 nM; Kd [13]: 93.8 nM
B8	8.06 nM	3.63 nM	11.2 nM	~7 nM	–	–	–
B9	–	–	–	–	1.14 nM	6.33 nM	Kd [14]: 0.81 nM; Kd [15]: 6.05 nM
B10	–	–	–	–	1.66 nM	9.6 nM	Kd [16]: 1.29 nM; Kd [17]: 9.36 nM
B11	–	–	–	–	1.07 nM	5.53 nM	Kd [18]: 0.8 nM; Kd [19]: 5.22 nM
B12	4.26 nM	1.96 nM	8.83 nM	~4 nM	–	–	–
B13	3.38 nM	2.33 nM	7.31 nM	~3 nM	–	–	–
